Laboratory results published in patent publication US20080044360A1 (COLLAGEN MEDICAL, published 2008).
Bridge positions count the residues as written; N and C are the ends. Square brackets hold non-standard residues; d marks the D form. Primed or numbered codes have the meaning given here. Side chains are listed from the residue outwards. Ends that are not written are not given here. * marks the point of attachment. Bpa = N[C@@H](Cc1ccc(C(=O)c2ccccc2)cc1)C(=O)O; Gd^D = GdDOTAGA (gadolinium DOTAGA chelate); Tyr(3-Cl) = N[C@@H](Cc1ccc(O)c(Cl)c1)C(=O)O; Bip = N[C@@H](Cc1ccc(-c2ccccc2)cc1)C(=O)O; Gd^T(3) = GdDTPA attached via thiourea; 1Nal = N[C@@H](Cc1cccc2ccccc12)C(=O)O; 2Nal = N[C@@H](Cc1ccc2ccccc2c1)C(=O)O; Bta = N[C@@H](Cc1csc2ccccc12)C(=O)O; Hyp = O=C(O)[C@@H]1C[C@@H](O)CN1; hPhe = N[C@@H](CCc1ccccc1)C(=O)O; 2Pal = N[C@@H](Cc1ccccn1)C(=O)O; 4Pal = N[C@@H](Cc1ccncc1)C(=O)O; Cha = N[C@@H](CC1CCCCC1)C(=O)O; K(Gd^T)Gd^T = not defined here; Pen = CC(C)(S)[C@H](N)C(=O)O; Gd^G = not defined here; Gd^T = not defined here; Gd^T″ = GdDTPA-thiourea; Cbz = O=C(OCc1ccccc1)*; Dap = NC[C@H](N)C(=O)O; AEEA = NCCOCCOCC(=O)O; Aib = CC(C)(N)C(=O)O

Legend:
[1] = biological target: T1, rat collagen, acid soluble, type I, rat tail (Upstate 08-115) (rat, UniProt P02454 152-1207; P02466 86-1125); assay: dried collagen assay
T1 construct: tissue extract, gelled and dried in wells; also called dried rat collagen

[2] = biological target: T2, human collagen type I, acid soluble, extracted from placenta (Sigma C7774) (human, UniProt P02452 162-1218; P08123 80-1119); assay: dried collagen assay
T2 construct: tissue extract, gelled and dried in wells; also called dried human collagen; h-Collagen
T2 sequence (P02452 162-1218 limits assumed, chain 1 of 2): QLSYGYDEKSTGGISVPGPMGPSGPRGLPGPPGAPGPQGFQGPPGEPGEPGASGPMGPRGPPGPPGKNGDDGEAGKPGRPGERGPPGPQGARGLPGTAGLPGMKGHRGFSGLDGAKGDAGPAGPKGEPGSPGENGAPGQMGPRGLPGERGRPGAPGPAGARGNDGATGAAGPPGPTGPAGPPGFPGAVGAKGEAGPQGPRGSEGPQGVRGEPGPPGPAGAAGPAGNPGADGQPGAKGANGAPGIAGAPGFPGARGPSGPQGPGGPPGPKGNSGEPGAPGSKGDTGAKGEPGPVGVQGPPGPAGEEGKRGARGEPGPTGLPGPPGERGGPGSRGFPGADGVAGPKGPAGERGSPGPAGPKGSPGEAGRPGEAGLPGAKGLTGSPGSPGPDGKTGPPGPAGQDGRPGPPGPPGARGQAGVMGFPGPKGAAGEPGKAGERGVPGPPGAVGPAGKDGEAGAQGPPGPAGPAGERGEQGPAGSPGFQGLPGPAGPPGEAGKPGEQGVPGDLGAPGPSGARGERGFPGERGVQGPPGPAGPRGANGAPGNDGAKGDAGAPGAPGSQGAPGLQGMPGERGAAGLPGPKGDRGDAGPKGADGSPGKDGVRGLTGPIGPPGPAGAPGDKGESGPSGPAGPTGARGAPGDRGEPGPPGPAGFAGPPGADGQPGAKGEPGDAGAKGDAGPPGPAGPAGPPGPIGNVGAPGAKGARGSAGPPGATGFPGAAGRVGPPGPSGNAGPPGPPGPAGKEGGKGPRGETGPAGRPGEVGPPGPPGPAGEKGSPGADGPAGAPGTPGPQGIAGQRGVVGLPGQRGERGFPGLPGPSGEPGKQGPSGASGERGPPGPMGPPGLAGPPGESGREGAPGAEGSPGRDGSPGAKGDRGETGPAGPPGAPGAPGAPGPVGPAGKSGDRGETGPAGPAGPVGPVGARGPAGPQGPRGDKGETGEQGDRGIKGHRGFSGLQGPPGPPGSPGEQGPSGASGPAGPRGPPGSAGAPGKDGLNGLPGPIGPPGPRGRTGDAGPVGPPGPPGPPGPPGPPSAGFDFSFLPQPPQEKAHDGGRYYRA
T2 sequence (P08123 80-1119 limits assumed, chain 2 of 2): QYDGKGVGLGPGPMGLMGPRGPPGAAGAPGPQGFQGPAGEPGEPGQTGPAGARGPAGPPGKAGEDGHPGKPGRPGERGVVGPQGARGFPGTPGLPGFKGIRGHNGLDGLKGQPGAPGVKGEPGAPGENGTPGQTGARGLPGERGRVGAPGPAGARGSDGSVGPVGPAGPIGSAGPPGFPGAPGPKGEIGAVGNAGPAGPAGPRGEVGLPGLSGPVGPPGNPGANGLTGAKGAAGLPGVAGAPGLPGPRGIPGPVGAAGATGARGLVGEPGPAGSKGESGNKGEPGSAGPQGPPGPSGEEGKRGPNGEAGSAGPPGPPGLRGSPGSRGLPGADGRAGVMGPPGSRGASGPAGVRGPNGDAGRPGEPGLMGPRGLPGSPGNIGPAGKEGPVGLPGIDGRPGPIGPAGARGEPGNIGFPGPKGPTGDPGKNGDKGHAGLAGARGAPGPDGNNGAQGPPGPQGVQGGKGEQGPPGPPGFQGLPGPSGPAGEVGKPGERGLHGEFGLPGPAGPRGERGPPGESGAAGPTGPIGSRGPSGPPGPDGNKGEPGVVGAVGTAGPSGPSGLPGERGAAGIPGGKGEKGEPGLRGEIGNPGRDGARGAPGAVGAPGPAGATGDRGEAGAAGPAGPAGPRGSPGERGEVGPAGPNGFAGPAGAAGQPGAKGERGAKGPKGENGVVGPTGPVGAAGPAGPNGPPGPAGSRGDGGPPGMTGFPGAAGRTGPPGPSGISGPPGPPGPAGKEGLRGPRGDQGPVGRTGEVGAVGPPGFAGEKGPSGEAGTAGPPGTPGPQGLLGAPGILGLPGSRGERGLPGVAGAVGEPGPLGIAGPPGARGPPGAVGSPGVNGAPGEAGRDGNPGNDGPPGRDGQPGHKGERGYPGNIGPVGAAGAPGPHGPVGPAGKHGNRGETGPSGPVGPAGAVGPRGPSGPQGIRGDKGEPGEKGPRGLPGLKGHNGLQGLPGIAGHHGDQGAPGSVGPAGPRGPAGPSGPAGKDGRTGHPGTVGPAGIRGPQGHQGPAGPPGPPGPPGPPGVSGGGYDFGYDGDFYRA

T1 sequence (P02454 152-1207, chain 1 of 2): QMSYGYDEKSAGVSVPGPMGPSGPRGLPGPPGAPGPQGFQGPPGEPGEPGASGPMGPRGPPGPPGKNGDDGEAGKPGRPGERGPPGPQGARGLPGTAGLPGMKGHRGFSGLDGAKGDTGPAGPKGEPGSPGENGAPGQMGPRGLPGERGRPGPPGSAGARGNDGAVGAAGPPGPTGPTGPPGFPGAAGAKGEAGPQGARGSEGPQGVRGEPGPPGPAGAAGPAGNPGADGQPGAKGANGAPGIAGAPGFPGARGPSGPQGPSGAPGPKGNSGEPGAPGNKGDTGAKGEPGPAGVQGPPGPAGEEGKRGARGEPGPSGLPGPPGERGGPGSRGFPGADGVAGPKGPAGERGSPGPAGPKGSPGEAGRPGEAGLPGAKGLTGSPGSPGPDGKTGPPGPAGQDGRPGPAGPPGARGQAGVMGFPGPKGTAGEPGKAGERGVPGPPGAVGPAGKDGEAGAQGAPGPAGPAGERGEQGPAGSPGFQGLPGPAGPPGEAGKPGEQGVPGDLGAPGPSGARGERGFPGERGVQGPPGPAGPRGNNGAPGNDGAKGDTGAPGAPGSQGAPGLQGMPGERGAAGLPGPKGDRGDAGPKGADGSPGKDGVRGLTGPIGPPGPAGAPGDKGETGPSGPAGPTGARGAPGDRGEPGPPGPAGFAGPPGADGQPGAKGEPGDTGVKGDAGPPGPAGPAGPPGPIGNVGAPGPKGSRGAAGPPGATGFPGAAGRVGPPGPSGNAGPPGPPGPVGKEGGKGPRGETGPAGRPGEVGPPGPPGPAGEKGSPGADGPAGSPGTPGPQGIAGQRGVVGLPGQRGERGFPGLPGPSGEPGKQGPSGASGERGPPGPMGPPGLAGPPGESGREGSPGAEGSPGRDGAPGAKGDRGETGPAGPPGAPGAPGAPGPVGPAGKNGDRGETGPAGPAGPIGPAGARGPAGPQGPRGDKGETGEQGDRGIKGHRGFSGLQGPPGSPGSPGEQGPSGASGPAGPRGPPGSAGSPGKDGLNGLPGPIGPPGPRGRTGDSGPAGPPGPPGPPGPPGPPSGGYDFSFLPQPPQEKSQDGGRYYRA
T1 sequence (P02466 86-1125, chain 2 of 2): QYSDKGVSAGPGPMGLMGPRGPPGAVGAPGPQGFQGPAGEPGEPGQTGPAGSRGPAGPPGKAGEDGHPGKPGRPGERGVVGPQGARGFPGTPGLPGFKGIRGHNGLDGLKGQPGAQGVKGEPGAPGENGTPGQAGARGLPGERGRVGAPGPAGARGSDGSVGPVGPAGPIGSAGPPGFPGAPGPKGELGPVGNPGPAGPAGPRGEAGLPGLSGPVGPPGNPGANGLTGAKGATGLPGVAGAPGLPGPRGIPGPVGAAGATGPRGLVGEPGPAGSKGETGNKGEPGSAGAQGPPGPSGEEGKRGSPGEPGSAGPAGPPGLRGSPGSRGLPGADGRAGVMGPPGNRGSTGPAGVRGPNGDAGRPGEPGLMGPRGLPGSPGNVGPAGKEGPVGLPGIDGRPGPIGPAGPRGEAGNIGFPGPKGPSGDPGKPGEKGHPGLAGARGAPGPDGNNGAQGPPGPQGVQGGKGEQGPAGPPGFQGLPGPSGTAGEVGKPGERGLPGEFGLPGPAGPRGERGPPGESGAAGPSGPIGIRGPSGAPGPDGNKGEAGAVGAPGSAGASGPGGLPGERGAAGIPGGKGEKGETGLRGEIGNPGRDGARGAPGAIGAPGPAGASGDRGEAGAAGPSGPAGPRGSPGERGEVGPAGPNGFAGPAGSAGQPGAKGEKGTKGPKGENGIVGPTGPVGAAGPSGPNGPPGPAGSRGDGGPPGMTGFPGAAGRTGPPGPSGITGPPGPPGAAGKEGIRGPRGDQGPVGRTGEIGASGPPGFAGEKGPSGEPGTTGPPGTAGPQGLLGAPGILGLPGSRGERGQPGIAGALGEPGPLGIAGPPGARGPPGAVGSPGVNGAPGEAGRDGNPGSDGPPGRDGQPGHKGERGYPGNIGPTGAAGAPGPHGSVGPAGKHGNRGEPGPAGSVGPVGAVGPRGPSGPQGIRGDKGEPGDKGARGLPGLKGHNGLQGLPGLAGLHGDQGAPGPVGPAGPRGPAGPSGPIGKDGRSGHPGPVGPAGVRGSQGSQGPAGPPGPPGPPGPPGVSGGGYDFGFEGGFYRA

% bound [1] [%] | % bound [2] [%] | Binder
42 | 64 | {Gd^T}-DWTC[4Pal]GDEYTWHCNYE (disulfide 4-13; not fully specified (C-terminus); reading uncertain) [Compound ID 849]
42 | 52 | {Gd^T}-PPQWHCTTRF[Hyp]HHYCLYG (disulfide 6-15; not fully specified (C-terminus); reading uncertain) [Compound ID 856]
93 | 93 | GQWHCTTYFPHHYCLYG (disulfide 5-14 (inferred); not fully specified (N-terminus)) [Compound ID 919]
14 | 11 | {Gd^T″}-AWHCTTRFPAHYCLYG (disulfide 4-13 (inferred)) [Compound ID 937]
70 | 79 | {Gd^T(3)}-GQWHCTTDFPHHYCL[2Nal]G (disulfide 5-14) [Compound ID 891]
67 | 75 | {Gd^T}-DWTCSGDEYTWHCNY[Aib] (disulfide 4-13; not fully specified (C-terminus); reading uncertain) [Compound ID 850]
0 | 20 | {Gd^T″}-PPWHCTTLFPHH[dY]CLYG (disulfide 5-14 (inferred); not fully specified (C-terminus)) [Compound ID 912]
0 | 14 | {Gd^T″}-AWHCTTLFPHH[dY]CLYG (disulfide 4-13 (inferred); not fully specified (C-terminus)) [Compound ID 909]
34 | 30 | {Gd^T″}-K(Gd^T″)K(K(Gd^T)Gd^T)GQWHCTTYFPHHYCLYG (disulfide 7-16 (inferred); reading uncertain) [Compound ID 960]
64 | 75 | {Gd^T(3)}-GK([Gly-Gd^T(3)])WHCYTYFPHH[1Nal]CLYG (disulfide 5-14; not fully specified (C-terminus)) [Compound ID 992]
71 | 87 | {Gd^T″}-GQWTCYGDEYTWYCNYE (disulfide 5-14 (inferred); not fully specified (C-terminus)) [Compound ID 826]
16 | 0 | {Gd^T″}-GQWHCTTDFPH[Dap](Gd^T″)YCLYG (disulfide 5-14) [Compound ID 887]
36 | 51 | {Gd^T″}-GQWHCTTRFPHHYCLYGK(K(Gd^T)Gd^T) (disulfide 5-14 (inferred); reading uncertain) [Compound ID 955]
41 | 50 | {Gd^T(3)}-GQWH[Pen]TTRFPHHYCLYG (disulfide 5-14; not fully specified (C-terminus)) [Compound ID 896]
45 | 48 | {Gd^T″}-GQWHCTTRFPHHYCLYGK(Gd^T″) (disulfide 5-14 (inferred); not fully specified (C-terminus)) [Compound ID 807]
35 | 41 | {Gd^T″}-GQ[2Nal]HCTTRFPHHYCLYG (disulfide 5-14) [Compound ID 872]
48 | 55 | {Gd^T″}-GQWHCTTRFPHH[1Nal]CLYG (disulfide 5-14) [Compound ID 867]
64 | 78 | {Gd^T(3)}-GQWHCTTLFPHH[1Nal]CLYG (disulfide 5-14; not fully specified (C-terminus)) [Compound ID 913]
0 | 19 | {Gd^T(3)}-GQWHCTT[Cha]FPHH[dY]CLYG (disulfide 5-14; not fully specified (C-terminus)) [Compound ID 918]
0 | 19 | {Gd^T″}-GQWHCTTYFPHH[dY]CLYG (disulfide 5-14 (inferred); not fully specified (C-terminus)) [Compound ID 914]

% bound [1] [%] | % bound [2] [%] | Binder
19 | 38 | {Gd^T″}-GQWHCTTDFPHHYCL[Bpa]G (disulfide 5-14) [Compound ID 889]
19 | 25 | {Gd^T″}-GQWHCTTRFPHHYCLYG[dK](Gd^T″) (disulfide 5-14 (inferred); not fully specified (C-terminus)) [Compound ID 808]
28 | 53 | {Gd^G}-GQWTCSGDEYTWHCNY (disulfide 5-14 (inferred); not fully specified (C-terminus); reading uncertain) [Compound ID 823]
28 | 45 | GQWHCTTYFPHHYCLYG-{AEEA-Gd^G} (disulfide 5-14 (inferred); reading uncertain, no N-terminal chelate printed) [Compound ID 874]
40 | 36 | {Gd^T″}-GQ[Bta]HCTTRFPHHYCLYG (disulfide 5-14) [Compound ID 868]
79 | 59 | {Gd^T(3)}-GQWHCTTRFPHHYC[hPhe]YG (disulfide 5-14) [Compound ID 932]
45 | 60 | {Gd^T}-GQWHCTTR[1Nal]PHHYCLYG (disulfide 5-14; not fully specified (C-terminus); reading uncertain) [Compound ID 860]
13 | 0 | {Gd^T″}-GQWHCTTD[Bpa]PHHYCLYG (disulfide 5-14) [Compound ID 882]
15 | 20 | {Gd^T(3)}-GQWHCTTD[2Nal]PHHYCLYG (disulfide 5-14; not fully specified (C-terminus)) [Compound ID 894]
55 | 54 | {Gd^D}-GK([Gly-Gd^D])QWHCTTYFPHHYCLYG (disulfide 6-15 (inferred)) [Compound ID 961]
67 | 76 | {Gd^T″}-GK([Gly-Gd^T″])WHCYTYFPHHYCLYGK(Gd^T″) (disulfide 5-14 (inferred)) [Compound ID 996]
60 | 64 | {Gd^T″}-GK([Gly-Gd^T″])QWHCTTYFPHHYCLYG (disulfide 6-15 (inferred)) [Compound ID 875]
56 | 64 | {Gd^T}-PPQWHCTTRFPHHYCLYG (disulfide 6-15 (inferred); not fully specified (C-terminus); reading uncertain) [Compound ID 854]
30 | 38 | {Gd^T″}-GQWHCTTDFPH[2Pal]YCLYG (disulfide 5-14) [Compound ID 888]
62 | 64 | Cbz-GQWHCTTRFPHHYCLYGK (disulfide 5-14 (inferred); not fully specified (residue 18)) [Compound ID 925]
0 | 23 | {Gd^T″}-GQWHCTT[Tyr(3-Cl)]FPHH[dY]CLYG (disulfide 5-14 (inferred); not fully specified (C-terminus)) [Compound ID 916]
33 | 38 | {Gd^T″}-GQWHCTTRFPHH[Bip]CLYG (disulfide 5-14) [Compound ID 873]
79 | 73 | {Gd^T}-GQWHCTTYFPHHYCLYG (disulfide 5-14 (inferred); not fully specified (C-terminus); reading uncertain) [Compound ID 861]
28 | 19 | {Gd^T″}-GQWHCTTR[Bip]PHHYCLYG (disulfide 5-14) [Compound ID 881]
